Assay results reported in patent US20240392013A1 (STELEXIS THERAPEUTICS, published 2024).
Where a chain is given by its changes, count along the chain named. One block for each binder: values may come before it.

How the values were obtained:
[1] = target: T1, recombinant mouse IL1RAP protein (Sino Biological, Cat #52657-M08H) (mouse, UniProt Q61730 21-359); assay: cell-free ELISA, mouse IL1RAP coated; data not shown
T1 construct: Bought protein
T1 sequence (looked up): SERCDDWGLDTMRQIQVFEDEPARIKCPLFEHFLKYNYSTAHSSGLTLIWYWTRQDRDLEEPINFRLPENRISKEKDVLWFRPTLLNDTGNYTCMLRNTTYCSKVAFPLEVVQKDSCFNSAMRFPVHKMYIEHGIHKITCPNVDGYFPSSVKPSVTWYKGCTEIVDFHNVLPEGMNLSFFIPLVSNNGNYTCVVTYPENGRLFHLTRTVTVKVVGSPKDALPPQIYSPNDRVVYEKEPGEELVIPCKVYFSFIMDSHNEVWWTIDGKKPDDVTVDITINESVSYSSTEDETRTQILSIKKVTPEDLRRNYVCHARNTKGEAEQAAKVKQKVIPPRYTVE
In short: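 Plates coated overnight at 4 °C with recombinant IL1RAP at 1 μg/ml in PBS pH 7.4, then blocked with 1% BSA. Antibodies incubated 1 h at room temperature from 100 nM in seven half-log dilutions. Bound antibody detected with anti-His HRP and chemiluminescence.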

[2] = target: T2, IL1RAP-Fc protein (Sino Biological, Cat #10121-H02H), recombinant human IL1RAP extracellular domain Fc-tagged (human, UniProt Q9NPH3 21-367); assay: cell-free competition ELISA: IL1RAP-Fc coated, mAb titrated, blocks binding of premixed IL1R1-His/IL1β complex
T2 construct: extracellular domain; not shown: Fc tag
T2 sequence (looked up): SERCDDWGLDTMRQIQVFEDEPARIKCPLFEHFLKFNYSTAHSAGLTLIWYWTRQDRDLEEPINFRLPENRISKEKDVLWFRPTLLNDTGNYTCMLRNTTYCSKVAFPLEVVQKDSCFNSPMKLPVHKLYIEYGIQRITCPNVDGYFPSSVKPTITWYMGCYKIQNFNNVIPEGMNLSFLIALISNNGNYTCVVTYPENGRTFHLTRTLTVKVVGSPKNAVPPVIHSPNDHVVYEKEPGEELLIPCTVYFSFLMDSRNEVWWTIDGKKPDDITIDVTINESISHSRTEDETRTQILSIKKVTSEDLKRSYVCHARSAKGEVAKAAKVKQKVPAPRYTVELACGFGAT
Experimental: High-binding 96-well plates were coated with IL1RAP-Fc protein (Sino Biological, Cat #10121-H02H) at concentration of 4 µg/ml and incubated overnight at 4° C. After 3× washes with 0.05% Tween-20 in PBS, pH 7.5, plates were blocked with 1% BSA in PBS for 1 hour at room temperature. Following, wells were incubated with each antibody at concentration of 50 nM for 1 hour at room temperature. […] IL1R1/IL1β complex was preincubated in assay buffer (1% BSA in PBS, pH 7.5) for 20 min at room temperature. After 3× washes, plates were incubated with anti-His HRP detection antibody (Medna, Cat #D8212, […]) for 1 hour at room temperature. Following 5× washes, SuperPico chemiluminescent substrate was applied to wells and signal was read on Spectramax M5.

[3] = target: T3, IL1RAP on HEK-Blue IL1β / HEK-Blue IL33 reporter cells (UniProt Q9NPH3 21-570, limits assumed); assay: cell-based or functional assay
T3 sequence (looked up): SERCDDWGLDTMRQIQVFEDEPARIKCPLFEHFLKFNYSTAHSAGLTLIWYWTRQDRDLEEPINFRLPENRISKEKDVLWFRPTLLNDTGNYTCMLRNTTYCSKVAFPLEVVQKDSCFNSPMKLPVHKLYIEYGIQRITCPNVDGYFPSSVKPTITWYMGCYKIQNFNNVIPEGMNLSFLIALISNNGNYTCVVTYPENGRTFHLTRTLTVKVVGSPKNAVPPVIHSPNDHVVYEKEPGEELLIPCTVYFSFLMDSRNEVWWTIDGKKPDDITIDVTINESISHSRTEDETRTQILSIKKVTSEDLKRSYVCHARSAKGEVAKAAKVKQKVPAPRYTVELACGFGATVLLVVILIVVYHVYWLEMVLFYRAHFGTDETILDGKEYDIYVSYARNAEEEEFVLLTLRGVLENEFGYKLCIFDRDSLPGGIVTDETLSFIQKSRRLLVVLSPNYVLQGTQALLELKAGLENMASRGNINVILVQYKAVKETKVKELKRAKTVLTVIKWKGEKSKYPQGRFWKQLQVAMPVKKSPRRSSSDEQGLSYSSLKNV

binding result [1]: no binding (tested: 100 nM) | IC50 [2]: 0.824 nM | Max % Inhibition at 200 nM, HEK-BlueIL33 NFκB Reporter Assay [3]: 95%
B1: STLX2012 (antibody, V domains shown)
VH: QVQLLQSGAEVKKPGSSVKVSCKASGGTFSIYAIDWVRQAPGQGLEWMGGIIPIFGTANSAQKFQGRVTITADKSTSTAYMELSSLRSEDTAVYYCARNGATSDAFDMWGQGTMVTVSS
VL: EIVLTQSPGTLSLSPGERATLSCRASLSVSSNYLAWFQQRPGQAPRLLIHGVSRRATGIPDRFSGSGSGTDFTLTISRLEPEDFAVYYCQQYGSSPLTFGGGTKVEIK
notes: Purified from hybridoma of immunized Alivamab mice; intact IgG; captured on anti-mouse IgG Fc sensors in Octet; kappa light chain; also called 74804_12A21B

binding result [1]: no binding (tested: 100 nM) | IC50 [2]: 0.804 nM | IC50, HEK-BlueIL33 NFκB Reporter Assay [3]: 9.62e-09 M (implied; unit not printed) | Max % Inhibition at 200 nM, HEK-BlueIL33 NFκB Reporter Assay [3]: 85%
B2: STLX2043 (antibody, V domains shown)
VH: B1 VH with A58E, K63N, V68I, S77N, M108I, S118F
VL: B1 VL with H50Y
notes: Purified from hybridoma of immunized Alivamab mice; intact IgG; captured on anti-mouse IgG Fc sensors in Octet; kappa light chain; also called 74804_43F04A
